How the values were obtained:
PI3K pathway = assay: CEER-FNA pathway profiling of breast cancer tumor samples exposed to anti-cancer therapy; assay type: cell-based; conditions: breast cancer tumor samples exposed to AKT inhibitor and/or Lapatinib; FIG. 17
Excerpt: The breast cancer tumor samples were exposed to AKT inhibitor and/or Lapatinib (a tyrosine kinase inhibitor). This example illustrates that cancer cells can adapt to therapeutic pressure due to drug therapy. […] FIG. 17 illustrates CEER-FNA analysis of biomarkers in pathway profiling of breast cancer cell samples after treatment with an AKT inhibitor, Lapatinib (a tyrosine kinase inhibitor) or combination therapy.

[1] = tested on: HER2 heterodimers and PI3K; assay: Proximity based dimer/complex assay in MCF7 cells; assay type: cell-based, human; conditions: response to ligand, FIG. 20
Excerpt: FIG. 1A-C show one embodiment of the foregoing proximity assay for detection of dimerization of receptor tyrosine kinases. […] A first detection antibody 115 is then used to bind to a different portion (e.g., epitope) on HER2. A second detection 120 antibody is thereafter used to bind to the dimerized second receptor tyrosine 1kinase e.g., HER3 125. The first detection antibody comprises one or a plurality of first activation state-independent antibodies specific for one member of the dimer, whereas a second detection antibody or a plurality of second detection antibodies is specific for the other member of the dimer. The first detection antibody is labeled with a facilitating moiety e.g., glucose oxidase (GO) and the second detection antibody is labeled with a first member of a signal amplification pair e.g., horseradish peroxidase (HRP). The facilitating moiety generates an oxidizing agent e.g., hydrogen peroxide, which channels to and reacts with the first member of the signal amplification pair. Thereafter, the plurality of detectable captured analytes are incubated with a second member of the signal amplification pair e.g., tyramide or tyramide biotin to generate an amplified signal, which is then detected. […]

PI3K complex = assay: Proximity (CEER) assay detecting PI3K complexes in T47D cells; assay type: cell-based, human; conditions: T47D cells treated with heregulin (HRG), compared to non-treated cells; FIG. 4C
Excerpt: FIG. 4C illustrates the detection of activated PI3K complexes in T47D cells (human ductal breast epithelial tumor cell line) treated with heregulin (HRG), compared to non-treated cells. In some embodiments, the detection of PI3K complexes will also correlate with the detection of activated (e.g., phosphorylated) PI3K. […]

**Q.** How did the “levels of phosphorylated pathway proteins after treatment” value (PI3K pathway) turn out when `CS(=O)(=O)CCNCc1ccc(-c2ccc3ncnc(Nc4ccc(OCc5cccc(F)c5)c(Cl)c4)c3c2)o1` [Lapatinib, lapatinib] was run?
**A.** Its value is “Higher levels of phosphorylated PI3K, AKT, ERK”.

**Q.** For “EGF: pathway activating ligand used to stimulate MCF7 cells”, which “activation of HER2 heterodimers and PI3K” value [1] is on record?
**A.** Its value is “activation of HER2 heterodimers and PI3K”.

**Q.** heregulin [HRG] was tested. Which “activation of HER2 heterodimers and PI3K” value [1] did it give?
**A.** Its value is “activation of HER2 heterodimers and PI3K”.

**Q.** And the “detection of PI3K complexes” value (PI3K complex)?
**A.** The value was “PI3K complexes were detected”.

— US9664683B2, “Profiling of signal pathway proteins to determine therapeutic efficacy” (Nestec S.A., priority 2011, dated 2017)
